Test results: article PMC6613789

Biological target: apoE4 (UniProt P02649 19-317, C130R)
Assay: EMSA

Chain of apoE4 (P02649 19-317 C130R): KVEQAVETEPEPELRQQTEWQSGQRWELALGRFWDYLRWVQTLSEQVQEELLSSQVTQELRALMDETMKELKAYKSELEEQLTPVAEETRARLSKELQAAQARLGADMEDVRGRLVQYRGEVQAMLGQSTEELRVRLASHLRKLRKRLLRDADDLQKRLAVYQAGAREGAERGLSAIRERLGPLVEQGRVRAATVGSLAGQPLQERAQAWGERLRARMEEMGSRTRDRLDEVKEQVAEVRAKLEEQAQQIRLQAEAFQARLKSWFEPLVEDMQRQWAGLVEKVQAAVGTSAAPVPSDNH

B1: CLEAR EMSA probe (dsDNA)
DNA 1: GTAGGTCACGTGACCGGG
DNA 2: CCCGGTCACGTGACCTAC
B1: binds.
